Laboratory results taken from patent US20210155701A1 (Chugai, published 2021).

T1: human CD3ed-Fc (biotin-labeled human CD3 epsilon and human CD3 delta linked to a human antibody constant … (human, biotin-labeled (BirA co-expression); site not stated)
T1 construct: also called CD3 epsilon delta heterodimer fused with the antibody constant region
T1 chain 1: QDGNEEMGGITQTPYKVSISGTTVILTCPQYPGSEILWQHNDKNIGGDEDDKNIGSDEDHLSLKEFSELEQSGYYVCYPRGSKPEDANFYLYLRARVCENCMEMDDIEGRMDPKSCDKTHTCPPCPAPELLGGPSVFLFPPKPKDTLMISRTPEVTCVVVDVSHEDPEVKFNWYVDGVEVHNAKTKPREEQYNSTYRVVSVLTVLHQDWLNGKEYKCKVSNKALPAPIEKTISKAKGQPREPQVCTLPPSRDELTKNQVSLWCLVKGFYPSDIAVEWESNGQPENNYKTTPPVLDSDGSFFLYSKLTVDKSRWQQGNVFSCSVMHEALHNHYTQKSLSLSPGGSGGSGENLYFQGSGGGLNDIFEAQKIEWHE
T1 chain 2: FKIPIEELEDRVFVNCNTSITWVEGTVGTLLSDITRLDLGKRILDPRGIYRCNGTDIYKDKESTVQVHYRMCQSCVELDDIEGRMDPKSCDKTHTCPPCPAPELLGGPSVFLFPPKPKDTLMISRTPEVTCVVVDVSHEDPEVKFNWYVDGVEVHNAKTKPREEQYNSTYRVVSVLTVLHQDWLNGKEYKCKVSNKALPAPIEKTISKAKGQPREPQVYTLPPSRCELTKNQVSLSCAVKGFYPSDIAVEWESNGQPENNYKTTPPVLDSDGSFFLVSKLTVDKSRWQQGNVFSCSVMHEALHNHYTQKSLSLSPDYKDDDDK


Key:
[1] = biological target: T1, human CD3ed-Fc (biotin-labeled human …); assay: BLI (Octet RED) as in Example 3
biotinylated plexin A1 = biological target: T2, biotinylated plexin A1 (human, UniProt Q9UIW2 27-1253, biotin on the AviTag sequence (SEQ ID NO: 36)); assay: BLI (Octet) as in Example 3
T2 construct: also called biotin-labeled human plexin A1; human plexin A1
T2 sequence (Q9UIW2 other isoform, or with tags, fused parts or gaps limits assumed): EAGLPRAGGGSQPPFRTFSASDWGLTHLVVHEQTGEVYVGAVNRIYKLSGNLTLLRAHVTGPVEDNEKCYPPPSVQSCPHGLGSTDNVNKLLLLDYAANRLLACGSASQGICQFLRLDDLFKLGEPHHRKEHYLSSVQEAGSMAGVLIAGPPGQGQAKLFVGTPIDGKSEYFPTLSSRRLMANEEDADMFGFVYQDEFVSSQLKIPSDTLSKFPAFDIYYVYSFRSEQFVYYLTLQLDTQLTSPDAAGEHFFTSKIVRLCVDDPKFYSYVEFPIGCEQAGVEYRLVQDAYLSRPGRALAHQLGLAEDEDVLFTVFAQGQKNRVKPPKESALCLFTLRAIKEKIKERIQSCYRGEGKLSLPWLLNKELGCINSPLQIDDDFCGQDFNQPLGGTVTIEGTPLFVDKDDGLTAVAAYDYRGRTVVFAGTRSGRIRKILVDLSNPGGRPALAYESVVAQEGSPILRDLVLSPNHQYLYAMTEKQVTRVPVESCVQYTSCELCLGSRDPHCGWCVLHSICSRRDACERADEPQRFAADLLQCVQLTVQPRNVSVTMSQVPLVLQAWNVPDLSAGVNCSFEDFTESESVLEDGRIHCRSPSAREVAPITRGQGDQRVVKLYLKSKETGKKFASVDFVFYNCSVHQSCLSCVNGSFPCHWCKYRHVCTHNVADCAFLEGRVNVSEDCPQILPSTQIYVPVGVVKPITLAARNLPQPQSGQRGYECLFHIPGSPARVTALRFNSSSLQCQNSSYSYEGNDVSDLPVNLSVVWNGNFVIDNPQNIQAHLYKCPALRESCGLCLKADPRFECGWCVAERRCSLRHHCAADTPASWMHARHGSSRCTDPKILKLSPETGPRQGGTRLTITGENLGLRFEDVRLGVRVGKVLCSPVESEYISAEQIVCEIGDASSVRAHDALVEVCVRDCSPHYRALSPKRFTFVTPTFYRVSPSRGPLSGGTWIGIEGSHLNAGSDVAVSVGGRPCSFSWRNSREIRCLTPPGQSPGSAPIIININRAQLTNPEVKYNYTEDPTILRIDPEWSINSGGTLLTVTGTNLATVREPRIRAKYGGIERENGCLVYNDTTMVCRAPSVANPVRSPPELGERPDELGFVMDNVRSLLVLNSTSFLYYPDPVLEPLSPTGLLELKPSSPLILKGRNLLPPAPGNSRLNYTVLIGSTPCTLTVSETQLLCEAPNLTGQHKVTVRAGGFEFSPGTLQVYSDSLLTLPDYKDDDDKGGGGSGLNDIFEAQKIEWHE

Row | binding result [1] | binding result (biotinylated plexin A1) | Binder
1 | no binding |  | bC3edL1R1N161H01-G1mISHI01/VK1-39-k0MT (before protease treatment) (antibody, human IgG1, kappa, V domains shown, Uncleaved) VH: QVQLVESGGGLVQPGGSLRLSCAASGFPFDNYVMSWVRQAPGKGLEWISAISWNGGSTYYAESMKGRFTISRDNAKSTLYLQMNSLKSEDTAVYYCAKEPRVYYSGSPDYWGQGTQVTVSG VL: DIQMTQSPSSLSASVGDRVTITCRASQSISSYLNWYQQKPGKAPKLLIYAASSLQSGVPSRFSGSGSGTDFTLTISSLQPEDFATYYCLQFDSYPLTFGGGTKVEIKR
2 | no binding |  | bC3edL1R1N164H01-G1mISHI01/VK1-39-k0MT (before protease treatment) (antibody, human IgG1, kappa, V domains shown, Uncleaved) VH: QVQLVESGGGLVQPGGSLRLSCAASGFTFDVYGMSWVRHSPGKGLEWVSTINWNGGSTYYAESMKGRFTISRDNAKNTVYLQMNSLKPEDTAVYYCAKFAPWDGDMEWGQGTQVTVSG VL: DIQMTQSPSSLSASVGDRVTITCRASQSISSYLNWYQQKPGKAPKLLIYAASSLQSGVPSRFSGSGSGTDFTLTISSLQPEDFATYYCLQFDSYPLTFGGGTKVEIKR
3 |  | no binding | PX02-R4_017-G1mISHI01/VK1-39-k0MT (before protease treatment) (antibody, human IgG1, kappa, V domains shown, Uncleaved) VH: QVQLVESGGGLVQPGGSLRLSCTASGISFSISTMGWYRQAPGKQRELVATITSGGEAYYANSMKDRFTISRDNAENTVYLQMNRLKPEDSAVYYCNTKFPWSTDWNARGQGTQVTVSG VL: DIQMTQSPSSLSASVGDRVTITCRASQSISSYLNWYQQKPGKAPKLLIYAASSLQSGVPSRFSGSGSGTDFTLTISSLQPEDFATYYCLQFDSYPLTFGGGTKVEIKR
4 |  | no binding | PX03-R4_009-G1mISHI01/VK1-39-k0MT (before protease treatment) (antibody, human IgG1, kappa, V domains shown, Uncleaved) VH: QLQLVESGGGLVQPGGSLRLSCTASGISFSISTMGWYRQAPGKQRELVATIASGGEAYYANSVKGRFTISREYAENTVFLQMNRLKPEDSAVYYCNTKFPWSTDWNARGQGTQVTVSG VL: DIQMTQSPSSLSASVGDRVTITCRASQSISSYLNWYQQKPGKAPKLLIYAASSLQSGVPSRFSGSGSGTDFTLTISSLQPEDFATYYCLQFDSYPLTFGGGTKVEIKR
5 |  | no binding | PX03-R2_006-G1mISHI01/VK1-39-k0MT (before protease treatment) (antibody, human IgG1, kappa, V domains shown, Uncleaved) VH: QLQLVESGGGLVQPGGSLRLSCTASGISFSISTMGWYRQAPGKQRELVATIASGGEAYYANSVKGRFTISRDNAENTVYLQMNRLKPEDSAVYYCNTKFPWSTDWNARGQGTQVTVSG VL: DIQMTQSPSSLSASVGDRVTITCRASQSISSYLNWYQQKPGKAPKLLIYAASSLQSGVPSRFSGSGSGTDFTLTISSLQPEDFATYYCLQFDSYPLTFGGGTKVEIKR
